Consider 4 sequences from the Immune Epitope Database (IEDB).

For one assay, the target named is HLA-B*35:01. As to the kind of experiment: IEDB peptide-MHC binding, purified MHC/competitive/fluorescence; filed as Kd, often an IC50 or EC50 that approximates it; ≥ and ≤ were set here for values at or beyond the usual limits of such assays.
Another assay deals with HLA-B*51:01. Described as above. The following applies: source organism: Salmonella enterica subsp. enterica serovar Typhi.
The target in a further assay is HLA-B*83:01. The description is as above.
The target of another assay is HLA-B*15:42. The description is as above.
In another assay the target is HLA-B*45:06. Described as above.
The next assay has as its target HLA-B*08:01. Described as above. The following applies: source organism: Salmonella enterica subsp. enterica serovar Typhi.
The target of another assay is HLA-A*68:23. Described as above.
The target of the next assay is HLA-C*05:01. As to the kind of experiment: IEDB peptide-MHC binding, purified MHC/direct/fluorescence; filed as Kd, often an IC50 or EC50 that approximates it; ≥ and ≤ were set here for values at or beyond the usual limits of such assays. The following applies: source organism: Salmonella enterica subsp. enterica serovar Typhi str. CT18.
For assay [1], the target named is HLA-A*02:01. As to the kind of experiment: IEDB peptide-MHC binding, purified MHC/competitive/fluorescence; filed as Kd, often an IC50 or EC50 that approximates it; ≥ and ≤ were set here for values at or beyond the usual limits of such assays. The following applies: source organism: Zaire ebolavirus.
Assay [2] addresses HLA-A*69:01. The assay is described as above. The following applies: source organism: Zaire ebolavirus.
In the next assay the target is HLA-B*39:01. The description is as above. To be noted: source organism: Zaire ebolavirus.
For a further assay, the target named is HLA-B*27:03. Described as above. To be noted: source organism: Zaire ebolavirus.
In a further assay the target is HLA-A*26:01. The description is as above. To be noted: source organism: Zaire ebolavirus.
For assay [3], the target named is HLA-C*14:02. Nature of the assay: IEDB peptide-MHC binding, purified MHC/direct/fluorescence; filed as Kd, often an IC50 or EC50 that approximates it; ≥ and ≤ were set here for values at or beyond the usual limits of such assays.
The target in another assay is HLA-B*15:01. Described as above. To be noted: source organism: Ebola virus - Gabon (1994-1997).
For another assay, the target named is HLA-A*02:03. The assay is described as above. The following applies: source organism: Zaire ebolavirus.
For another assay, the target named is HLA-A*02:12. The description is as above. The following applies: source organism: Zaire ebolavirus.
The next assay deals with HLA-A*02:19. The description is as above. The following applies: source organism: Zaire ebolavirus.
For the next assay, the target named is HLA-A*02:16. The description is as above. To be noted: source organism: Zaire ebolavirus.
The next assay concerns the target HLA-A*68:02. The description is as above. The following applies: source organism: Zaire ebolavirus.
Assay [4] addresses HLA-C*14:02. Nature of the assay: IEDB peptide-MHC binding, purified MHC/competitive/fluorescence; filed as Kd, often an IC50 or EC50 that approximates it; ≥ and ≤ were set here for values at or beyond the usual limits of such assays. The following applies: source organism: Yersinia pestis Nepal516.
A further assay deals with HLA-B*40:13. The assay is described as above.
The target in the next assay is HLA-B*58:01. The assay is described as above. The following applies: source organism: Yersinia pestis Nepal516.
The target in a further assay is HLA-A*32:15. Described as above.
A further assay concerns the target HLA-A*32:07. The description is as above.
Assay [5] has as its target HLA-A*02:01. Nature of the assay: IEDB peptide-MHC binding, purified MHC/direct/fluorescence; filed as Kd, often an IC50 or EC50 that approximates it; ≥ and ≤ were set here for values at or beyond the usual limits of such assays. The following applies: source organism: Entamoeba histolytica HM-1:IMSS.
Assay [6] concerns the target HLA-A*69:01. The assay is described as above. The following applies: source organism: Entamoeba histolytica HM-1:IMSS.
The target of a further assay is HLA-C*15:02. The assay is described as above. The following applies: source organism: Entamoeba histolytica HM-1:IMSS.
In the next assay the target is HLA-C*06:02. The assay is described as above. The following applies: source organism: Entamoeba histolytica HM-1:IMSS.
The mark [7] stands for this setting: source organism: Salmonella enterica subsp. enterica serovar Typhi.
[8] abbreviates: source organism: Zaire ebolavirus.
[9] abbreviates: source organism: Yersinia pestis Nepal516.
The mark [10] stands for this setting: source organism: Entamoeba histolytica HM-1:IMSS.

As to MPFIATPPV, the Kd in the assay with HLA-B*35:01 (setting [7]) was ≤ 0.1 nM; with HLA-B*51:01, 567 nM; in the assay with HLA-B*83:01 (setting [7]), 62.6 nM; with HLA-B*15:42 (setting [7]), ≥ 5000 nM; in the assay with HLA-B*45:06 (setting [7]) it was ≥ 5000 nM; with HLA-B*08:01, 1440 nM. Also, the Kd in the assay with HLA-A*68:23 (setting [7]) was 2.1 nM; with HLA-C*05:01, ≥ 20000 nM.
With KVYWAGIEF, the Kd in the assay with HLA-B*35:01 (setting [8]) is 114 nM; in the assay with HLA-A*02:01 [1] it was ≥ 20000 nM; with HLA-A*69:01 [2] it was ≥ 20000 nM; with HLA-B*39:01, ≥ 20000 nM; with HLA-B*27:03, ≥ 20000 nM; in the assay with HLA-A*26:01, ≥ 20000 nM. For the same sequence, the Kd with HLA-C*14:02 [3] (setting [8]) is 18 nM; with HLA-B*15:01, 133 nM; with HLA-A*02:03, ≥ 20000 nM; with HLA-A*02:12, ≥ 20000 nM; with HLA-A*02:19, ≥ 20000 nM; with HLA-A*02:16, ≥ 20000 nM. Further, in the assay with HLA-A*68:02, the dissociation constant Kd was ≥ 20000 nM.
For the sequence YSLMSRYQF, the equilibrium dissociation constant (Kd) with HLA-C*14:02 [4] is 43 nM; in the assay with HLA-B*40:13 (setting [9]) it was 13.2 nM; in the assay with HLA-B*58:01, 16.2 nM; with HLA-A*32:15 (setting [9]) it was 58.2 nM; in the assay with HLA-B*83:01 (setting [9]), ≥ 5000 nM; in the assay with HLA-A*32:07 (setting [9]), 25.8 nM. For the same sequence, the Kd with HLA-B*15:42 (setting [9]) is ≥ 5000 nM; with HLA-B*45:06 (setting [9]), ≥ 5000 nM; with HLA-A*68:23 (setting [9]), 29.5 nM.
Take SMFERDFHF: the Kd is 2.8 nM with HLA-B*40:13 (setting [10]); 31.6 nM with HLA-A*32:15 (setting [10]); ≥ 5000 nM with HLA-B*83:01 (setting [10]); 9.3 nM in the assay with HLA-A*32:07 (setting [10]); ≥ 5000 nM with HLA-B*15:42 (setting [10]); ≥ 5000 nM with HLA-B*45:06 (setting [10]). Besides, the Kd is 4 nM with HLA-A*02:01 [5]; 3270 nM with HLA-C*14:02 [3] (setting [10]); ≥ 5000 nM in the assay with HLA-A*69:01 [6]; ≥ 20000 nM with HLA-C*15:02; 1720 nM with HLA-C*06:02.

One may read the Kd as the equilibrium constant for the complex coming apart. Low readings indicate a tighter complex, high ones a looser complex.
